Read-outs that look alike come from different tables or passages of the source.
B1: RIFIN PF3D7_1254800 variable region (residues 165-274) (domain or fragment)
chain: NYETINAFIAKTIEELEGIPGITKLFGAKISQFVTPAVFRKPMSLVETILSEKKKLCLCAANKNELLCRGMNPNVPETLPKKIEVAVNEVLSSVNDTWATATTPTTFFTN
B2: RIFIN PF3D7_1254800 variable region C223S (165-261) (domain or fragment)
chain: NYETINAFIAKTIEELEGIPGITKLFGAKISQFVTPAVFRKPMSLVETILSEKKKLCLSAANKNELLCRGMNPNVPETLPKKIEVAVNEVLSSVNDT
B3: RIFIN PF3D7_0100400 variable region (165-329) (domain or fragment)
chain: VWKTTEIAAAMELAKQAGAAAGLKAGHLAGTNAVIEQLRTLGIYFVGDKLLETIIDVTNYMNVSFIYDKVYSHYTTSCTPSLVNDQLVGTFNTSDPFCNLVHSNLQGSFYRSSAQTIIYEKVEEAVAGAEQAATTKTAVMTPIYTTEFTAKNIAEVEAATTSYYT

Assays:
Test in all cases: SPR
[1] = target: T1, LILRB1 D1D4 (complete extracellular domain of LILRB1) (human, UniProt Q8NHL6 24-417)
T1 sequence (Q8NHL6 24-417): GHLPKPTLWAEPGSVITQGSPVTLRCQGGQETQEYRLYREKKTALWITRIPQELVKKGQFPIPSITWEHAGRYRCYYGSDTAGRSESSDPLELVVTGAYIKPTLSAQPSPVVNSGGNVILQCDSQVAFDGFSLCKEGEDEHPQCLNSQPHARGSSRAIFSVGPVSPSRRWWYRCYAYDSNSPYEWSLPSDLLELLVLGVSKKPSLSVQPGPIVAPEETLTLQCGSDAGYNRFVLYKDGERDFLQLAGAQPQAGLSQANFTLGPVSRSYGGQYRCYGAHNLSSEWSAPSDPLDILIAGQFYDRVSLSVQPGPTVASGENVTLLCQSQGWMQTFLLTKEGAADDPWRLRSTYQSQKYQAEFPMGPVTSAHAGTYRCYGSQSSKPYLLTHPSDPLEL

[2] = target: T1, LILRB1 D1D4 (complete extracellular …); remark: listed apart in the source
LILRB1 D1D2 [3] = target: T2, LILRB1 D1D2 (human, UniProt Q8NHL6 24-221)
T2 sequence (Q8NHL6 24-221): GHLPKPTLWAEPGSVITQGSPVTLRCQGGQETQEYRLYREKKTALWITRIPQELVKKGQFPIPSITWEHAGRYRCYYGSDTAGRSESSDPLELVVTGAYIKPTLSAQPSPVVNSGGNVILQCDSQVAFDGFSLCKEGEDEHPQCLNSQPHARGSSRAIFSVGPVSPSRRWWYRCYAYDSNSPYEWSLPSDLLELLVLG

LILRB1 D1D2 [4] = target: T2, LILRB1 D1D2; remark: listed apart in the source

Binder	Kd [1]	Kd [2]	koff [2]	kon [2]	Kd (LILRB1 D1D2 [3])	Kd (LILRB1 D1D2 [4])	koff (LILRB1 D1D2 [4])	kon (LILRB1 D1D2 [4])
B1	570 ± 130 nM	1130 nM	0.297 s⁻¹	263000 M⁻¹ s⁻¹	–	–	–	–
B2	700 ± 5 nM	1040 nM	0.299 s⁻¹	288000 M⁻¹ s⁻¹	1100 ± 50 nM	1330 nM	0.579 s⁻¹	437000 M⁻¹ s⁻¹
B3	4400 ± 3200 nM	14500 nM	0.0592 s⁻¹	4100 M⁻¹ s⁻¹	–	–	–	–
